Assay results taken from patent publication US20110052564.

Columns and labels:
[1] = biological target: misfolded H5 of H5N1 strain A/Vietnam/1203/04, cH5-1
[2] = biological target: T1, crossbeta dOVA-2, ovalbumin at 1.0 mg/mL in PBS heated five cycles from 30 to 85 C, P01012
T1 chain: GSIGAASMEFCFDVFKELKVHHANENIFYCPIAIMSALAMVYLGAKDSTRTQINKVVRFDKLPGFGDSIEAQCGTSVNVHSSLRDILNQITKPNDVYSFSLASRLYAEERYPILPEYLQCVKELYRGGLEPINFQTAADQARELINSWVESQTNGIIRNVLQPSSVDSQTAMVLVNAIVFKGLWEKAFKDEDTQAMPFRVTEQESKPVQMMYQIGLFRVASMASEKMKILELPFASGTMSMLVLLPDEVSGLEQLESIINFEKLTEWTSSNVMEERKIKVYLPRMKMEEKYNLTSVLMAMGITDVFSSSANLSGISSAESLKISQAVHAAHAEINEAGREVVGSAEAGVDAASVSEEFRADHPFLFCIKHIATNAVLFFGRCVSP

[3] = biological target: crossbeta FVIII-1 (cFVIII-1), Helixate kept at 4 C for 20 hours
Sequence of crossbeta FVIII-1 (cFVIII-1), Helixate kept at 4 C for 20 hours (chain, as listed by the source): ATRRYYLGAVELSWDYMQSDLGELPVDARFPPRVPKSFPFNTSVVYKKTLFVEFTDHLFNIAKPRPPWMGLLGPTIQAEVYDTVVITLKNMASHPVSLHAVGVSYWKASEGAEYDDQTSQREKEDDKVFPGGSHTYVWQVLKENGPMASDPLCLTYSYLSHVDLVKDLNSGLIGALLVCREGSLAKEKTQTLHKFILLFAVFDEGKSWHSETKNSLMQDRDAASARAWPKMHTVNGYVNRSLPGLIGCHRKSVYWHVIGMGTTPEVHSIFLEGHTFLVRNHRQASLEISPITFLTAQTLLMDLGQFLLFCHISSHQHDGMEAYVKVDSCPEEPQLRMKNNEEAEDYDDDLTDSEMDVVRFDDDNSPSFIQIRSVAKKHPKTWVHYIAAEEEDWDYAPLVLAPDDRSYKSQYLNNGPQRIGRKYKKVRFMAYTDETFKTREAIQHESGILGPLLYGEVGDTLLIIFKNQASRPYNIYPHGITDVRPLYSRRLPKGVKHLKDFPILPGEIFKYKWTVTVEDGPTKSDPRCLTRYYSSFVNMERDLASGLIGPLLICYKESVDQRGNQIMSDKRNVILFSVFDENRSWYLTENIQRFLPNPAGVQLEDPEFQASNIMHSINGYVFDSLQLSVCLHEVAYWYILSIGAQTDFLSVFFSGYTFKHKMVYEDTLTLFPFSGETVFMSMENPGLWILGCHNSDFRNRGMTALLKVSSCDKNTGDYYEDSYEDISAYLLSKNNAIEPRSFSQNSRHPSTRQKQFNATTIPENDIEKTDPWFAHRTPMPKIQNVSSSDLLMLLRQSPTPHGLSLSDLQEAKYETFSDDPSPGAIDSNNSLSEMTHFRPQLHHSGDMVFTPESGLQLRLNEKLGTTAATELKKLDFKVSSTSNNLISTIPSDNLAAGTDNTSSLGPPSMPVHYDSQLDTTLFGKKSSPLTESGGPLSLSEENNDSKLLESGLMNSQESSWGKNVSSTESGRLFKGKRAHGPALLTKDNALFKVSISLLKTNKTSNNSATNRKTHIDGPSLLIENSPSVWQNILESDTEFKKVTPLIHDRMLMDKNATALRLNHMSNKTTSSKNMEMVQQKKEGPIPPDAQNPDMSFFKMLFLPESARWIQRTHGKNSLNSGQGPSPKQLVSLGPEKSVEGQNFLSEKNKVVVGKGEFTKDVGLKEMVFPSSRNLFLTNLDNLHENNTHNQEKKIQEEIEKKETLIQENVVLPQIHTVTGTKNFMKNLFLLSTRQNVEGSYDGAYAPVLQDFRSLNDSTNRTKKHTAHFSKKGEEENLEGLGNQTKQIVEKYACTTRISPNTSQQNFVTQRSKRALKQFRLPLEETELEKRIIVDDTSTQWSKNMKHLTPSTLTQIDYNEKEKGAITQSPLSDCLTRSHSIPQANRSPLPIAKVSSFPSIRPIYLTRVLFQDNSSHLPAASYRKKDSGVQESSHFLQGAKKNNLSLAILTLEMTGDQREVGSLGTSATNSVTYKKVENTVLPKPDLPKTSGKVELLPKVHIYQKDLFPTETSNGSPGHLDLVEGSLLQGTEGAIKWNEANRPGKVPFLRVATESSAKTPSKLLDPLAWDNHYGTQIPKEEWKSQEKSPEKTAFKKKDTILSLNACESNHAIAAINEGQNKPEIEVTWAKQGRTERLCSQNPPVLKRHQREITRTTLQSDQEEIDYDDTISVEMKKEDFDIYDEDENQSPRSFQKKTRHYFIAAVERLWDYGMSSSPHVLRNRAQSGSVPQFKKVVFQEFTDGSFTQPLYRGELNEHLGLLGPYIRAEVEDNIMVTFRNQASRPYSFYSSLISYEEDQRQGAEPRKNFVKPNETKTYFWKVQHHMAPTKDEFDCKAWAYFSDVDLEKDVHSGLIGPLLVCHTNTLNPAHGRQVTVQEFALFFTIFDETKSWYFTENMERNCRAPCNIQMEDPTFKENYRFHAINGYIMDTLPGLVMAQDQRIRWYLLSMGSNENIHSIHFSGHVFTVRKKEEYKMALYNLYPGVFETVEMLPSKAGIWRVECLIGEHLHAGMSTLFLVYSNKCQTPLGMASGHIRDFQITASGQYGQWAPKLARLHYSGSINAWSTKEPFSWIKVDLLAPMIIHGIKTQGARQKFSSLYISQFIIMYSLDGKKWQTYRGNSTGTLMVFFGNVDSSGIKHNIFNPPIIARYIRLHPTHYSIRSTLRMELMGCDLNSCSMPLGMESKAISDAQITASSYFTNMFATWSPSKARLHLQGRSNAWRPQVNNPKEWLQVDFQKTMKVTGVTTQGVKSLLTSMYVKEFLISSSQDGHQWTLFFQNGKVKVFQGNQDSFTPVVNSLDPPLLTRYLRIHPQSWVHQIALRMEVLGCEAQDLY

[4] = biological target: crossbeta factor VIII form 12, Helixate kept at 37 C for 1 week, P00451
Sequence of crossbeta factor VIII form 12, Helixate kept at 37 C for 1 week, P00451 (P00451 whole entry, looked up): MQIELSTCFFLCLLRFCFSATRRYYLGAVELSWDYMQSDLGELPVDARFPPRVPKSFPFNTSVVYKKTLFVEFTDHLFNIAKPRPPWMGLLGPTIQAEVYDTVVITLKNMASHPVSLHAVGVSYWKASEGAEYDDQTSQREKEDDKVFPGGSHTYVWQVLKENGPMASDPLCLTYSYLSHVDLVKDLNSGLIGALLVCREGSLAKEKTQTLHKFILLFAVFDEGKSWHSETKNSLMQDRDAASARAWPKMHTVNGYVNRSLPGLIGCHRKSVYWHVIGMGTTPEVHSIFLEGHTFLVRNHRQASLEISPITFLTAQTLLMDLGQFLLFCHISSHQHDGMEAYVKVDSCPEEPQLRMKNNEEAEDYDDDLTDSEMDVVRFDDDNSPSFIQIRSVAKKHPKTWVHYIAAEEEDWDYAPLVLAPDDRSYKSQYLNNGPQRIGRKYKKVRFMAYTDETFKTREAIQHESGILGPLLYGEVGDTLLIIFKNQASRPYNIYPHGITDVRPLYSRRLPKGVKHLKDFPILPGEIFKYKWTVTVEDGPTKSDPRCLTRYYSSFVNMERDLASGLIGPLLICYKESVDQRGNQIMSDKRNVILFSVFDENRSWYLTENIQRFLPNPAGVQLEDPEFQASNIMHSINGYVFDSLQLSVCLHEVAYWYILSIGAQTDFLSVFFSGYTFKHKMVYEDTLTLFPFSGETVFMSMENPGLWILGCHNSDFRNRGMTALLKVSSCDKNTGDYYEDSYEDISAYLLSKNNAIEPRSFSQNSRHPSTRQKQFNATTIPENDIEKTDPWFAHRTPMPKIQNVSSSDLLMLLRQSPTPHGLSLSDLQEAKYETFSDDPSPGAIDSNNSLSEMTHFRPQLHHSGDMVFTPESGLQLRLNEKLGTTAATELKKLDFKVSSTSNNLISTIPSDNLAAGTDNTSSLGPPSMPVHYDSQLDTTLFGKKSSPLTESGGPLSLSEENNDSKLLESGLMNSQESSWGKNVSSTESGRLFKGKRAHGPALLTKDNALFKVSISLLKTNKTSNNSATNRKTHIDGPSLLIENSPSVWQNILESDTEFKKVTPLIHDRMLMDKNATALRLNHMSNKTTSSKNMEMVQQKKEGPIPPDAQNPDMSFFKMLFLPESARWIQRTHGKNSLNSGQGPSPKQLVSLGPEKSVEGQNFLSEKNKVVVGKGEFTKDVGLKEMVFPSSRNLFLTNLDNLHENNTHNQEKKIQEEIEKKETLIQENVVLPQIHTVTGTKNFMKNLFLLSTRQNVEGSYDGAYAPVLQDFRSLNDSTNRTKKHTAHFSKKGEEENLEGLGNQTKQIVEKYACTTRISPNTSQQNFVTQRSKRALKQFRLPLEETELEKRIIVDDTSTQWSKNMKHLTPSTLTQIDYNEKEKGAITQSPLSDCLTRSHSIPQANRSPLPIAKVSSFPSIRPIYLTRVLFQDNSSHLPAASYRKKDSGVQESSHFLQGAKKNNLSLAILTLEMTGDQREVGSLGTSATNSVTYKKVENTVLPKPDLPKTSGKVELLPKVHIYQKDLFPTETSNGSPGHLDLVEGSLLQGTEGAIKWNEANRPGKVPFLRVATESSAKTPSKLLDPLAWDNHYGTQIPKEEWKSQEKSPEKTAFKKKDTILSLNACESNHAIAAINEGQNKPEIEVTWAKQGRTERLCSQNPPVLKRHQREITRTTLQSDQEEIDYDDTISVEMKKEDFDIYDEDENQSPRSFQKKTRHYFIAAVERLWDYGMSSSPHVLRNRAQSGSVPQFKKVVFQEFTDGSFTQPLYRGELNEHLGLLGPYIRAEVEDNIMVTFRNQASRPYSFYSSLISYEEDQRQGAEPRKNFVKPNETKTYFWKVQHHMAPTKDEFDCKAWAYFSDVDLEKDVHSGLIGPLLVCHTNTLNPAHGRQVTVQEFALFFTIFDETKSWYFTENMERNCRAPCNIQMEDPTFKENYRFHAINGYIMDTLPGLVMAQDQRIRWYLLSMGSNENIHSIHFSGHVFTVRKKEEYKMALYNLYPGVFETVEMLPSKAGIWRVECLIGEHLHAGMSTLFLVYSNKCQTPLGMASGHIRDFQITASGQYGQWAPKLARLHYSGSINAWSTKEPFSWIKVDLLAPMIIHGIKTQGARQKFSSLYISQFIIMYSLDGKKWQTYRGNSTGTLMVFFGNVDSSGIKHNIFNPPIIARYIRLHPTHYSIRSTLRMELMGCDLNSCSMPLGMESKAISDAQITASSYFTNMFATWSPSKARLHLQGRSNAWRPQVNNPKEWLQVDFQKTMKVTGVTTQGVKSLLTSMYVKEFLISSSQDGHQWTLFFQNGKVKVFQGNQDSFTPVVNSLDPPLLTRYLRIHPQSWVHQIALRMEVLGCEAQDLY

[5] = biological target: T2, crossbeta dOVA-3, ovalbumin at 1 mg/ml in PBS incubated about 16 h at 75 C, P01012
T2 chain: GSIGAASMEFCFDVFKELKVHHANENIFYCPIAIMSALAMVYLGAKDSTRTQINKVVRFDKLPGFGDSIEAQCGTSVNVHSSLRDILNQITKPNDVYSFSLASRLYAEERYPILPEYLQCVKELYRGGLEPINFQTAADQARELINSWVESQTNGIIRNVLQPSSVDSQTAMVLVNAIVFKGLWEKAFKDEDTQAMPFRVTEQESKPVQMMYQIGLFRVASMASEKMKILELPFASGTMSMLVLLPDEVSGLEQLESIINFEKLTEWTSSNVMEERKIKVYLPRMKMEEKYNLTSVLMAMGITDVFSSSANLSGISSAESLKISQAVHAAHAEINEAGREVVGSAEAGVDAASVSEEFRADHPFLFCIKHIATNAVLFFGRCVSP

[6] = biological target: non-treated H5 of H5N1 strain A/Vietnam/1203/04 (nH5), Protein Sciences
[7] = biological target: misfolded H5 of H5N1 strain A/Vietnam/1203/04, cH5-2
[8] = biological target: T3, crossbeta dOVA-1, ovalbumin at 5.2 mg/ml in HBS treated with HCl for 40 minutes at 37 C and neutralized, P01012
T3 chain: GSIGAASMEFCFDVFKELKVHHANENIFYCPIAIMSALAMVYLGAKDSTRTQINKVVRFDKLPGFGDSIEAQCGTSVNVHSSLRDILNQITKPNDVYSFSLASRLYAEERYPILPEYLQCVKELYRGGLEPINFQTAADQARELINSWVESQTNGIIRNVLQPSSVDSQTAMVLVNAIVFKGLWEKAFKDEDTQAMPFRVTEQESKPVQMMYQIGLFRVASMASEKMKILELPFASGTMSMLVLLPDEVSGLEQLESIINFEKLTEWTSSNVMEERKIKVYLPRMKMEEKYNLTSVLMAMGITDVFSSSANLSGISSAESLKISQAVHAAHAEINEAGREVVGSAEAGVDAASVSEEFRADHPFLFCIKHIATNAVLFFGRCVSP

[9] = biological target: misfolded H5 of H5N1 strain A/Vietnam/1203/04, cH5-4
[10] = biological target: T4, crossbeta nOVA, ovalbumin dissolved in PBS at 1.0 mg/mL, P01012
T4 chain: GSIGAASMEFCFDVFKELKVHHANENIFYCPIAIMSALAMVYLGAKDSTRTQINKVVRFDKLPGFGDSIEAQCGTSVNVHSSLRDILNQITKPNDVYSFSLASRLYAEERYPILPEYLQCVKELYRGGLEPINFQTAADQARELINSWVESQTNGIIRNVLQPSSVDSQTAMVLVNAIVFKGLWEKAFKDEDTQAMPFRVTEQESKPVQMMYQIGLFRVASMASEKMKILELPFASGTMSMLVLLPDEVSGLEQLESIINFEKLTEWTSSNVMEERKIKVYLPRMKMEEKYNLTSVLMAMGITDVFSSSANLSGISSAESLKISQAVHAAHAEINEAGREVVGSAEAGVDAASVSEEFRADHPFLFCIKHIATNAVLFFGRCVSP

[11] = biological target: misfolded H5 of H5N1 strain A/Vietnam/1203/04, cH5-3
[12] = biological target: crossbeta FVIII-5 (cFVIII-5), Helixate kept at 95 C for 5 minutes
Sequence of crossbeta FVIII-5 (cFVIII-5), Helixate kept at 95 C for 5 minutes (chain, as listed by the source): as the sequence (chain, as listed by the source) above

B1: tissue type plasminogen activator (tPA; Actilyse, Boehringer-Ingelheim) (protein)
chain: SYQVICRDEKTQMIYQQHQSWLRPVLRSNRVEYCWCNSGRAQCHSVPVKSCSEPRCFNGGTCQQALYFSDFVCQCPEGFAGKCCEIDTRATCYEDQGISYRGTWSTAESGAECTNWNSSALAQKPYSGRRPDAIRLGLGNHNYCRNPDRDSKPWCYVFKAGKYSSEFCSTPACSEGNSDCYFGNGSAYRGTHSLTESGASCLPWNSMILIGKVYTAQNPSAQALGLGKHNYCRNPDGDAKPWCHVLKNRRLTWEYCDVPSCSTCGLRQYSQPQFRIKGGLFADIASHPWQAAIFAKHRRSPGERFLCGGILISSCWILSAAHCFQERFPPHHLTVILGRTYRVVPGEEEQKFEVEKYIVHKEFDDDTYDNDIALLQLKSDSSRCAQESSVVRTVCLPPADLQLPDWTECELSGYGKHEALSPFYSERLKEAHVRLYPSSRCTSQHLLNRTVTDNMLCAGDTRSGGPQANLHDACQGDSGGPLVCLNDGRMTLVGIISWGLGCGQKDVPGVYTKVTNYLDWIRDNMRP
With B1 the “tPA mediated plasminogen activation assay” value [1] was “cH5-1 (50% of standard)”, the Activation at 10 ug/mL [2] was 107% and the Activation at 10 ug/mL (row is the reference dOVA-2 at 80, set at 100%) [2] was 100%. The Activation at 25 ug/mL [2] was 107%, the Activation at 25 ug/mL (row is the reference dOVA-2 at 80, set at 100%) [2] was 100% and the “tPA/Plg activation assay, relative crossbeta content compared to a misfolded ovalbumin standard” value [3] was “approximately 50, 75 and 125%”. For the same protein, the “tPA/Plg activation assay, relative crossbeta content compared to a misfolded ovalbumin standard” value [4] was “approximately 50, 75 and 125%”, the Activation at 10 ug/mL [5] was 60.9% and the Activation at 25 ug/mL [5] was 79%. The “tPA mediated plasminogen activation assay” value [6] was “nH5 (140% of standard)”, the “tPA mediated plasminogen activation assay” value [7] was “cH5-2 (150% of standard)” and the Activation at 10 ug/mL [8] was 97.4%. The Activation at 25 ug/mL [8] was 136%, the “tPA mediated plasminogen activation assay” value [9] was “cH5-4 (37% of standard)” and the Activation at 10 ug/mL [10] was 48.8%. For the same protein, the Activation at 25 ug/mL [10] was 48.1%, the “tPA mediated plasminogen activation assay” value [11] was “cH5-3 (200% of standard)” and the “tPA/Plg activation assay, relative crossbeta content compared to a misfolded ovalbumin standard” value [12] was “approximately 50, 75 and 125%”.
